Reference: patent US20050026828A1
Values belong to the binder of their own block, whether it stands above or below them.

Experiments:
[1] = biological target: human prokineticin receptor 2 (human) (UniProt Q8NFJ6); test: cell-based or functional assay
[2] = biological target: human prokineticin receptor 1 (human) (UniProt Q8TCW9); test: cell-based or functional assay
Chain of UniProt Q8TCW9 (Q8TCW9 whole entry I255M/S256T): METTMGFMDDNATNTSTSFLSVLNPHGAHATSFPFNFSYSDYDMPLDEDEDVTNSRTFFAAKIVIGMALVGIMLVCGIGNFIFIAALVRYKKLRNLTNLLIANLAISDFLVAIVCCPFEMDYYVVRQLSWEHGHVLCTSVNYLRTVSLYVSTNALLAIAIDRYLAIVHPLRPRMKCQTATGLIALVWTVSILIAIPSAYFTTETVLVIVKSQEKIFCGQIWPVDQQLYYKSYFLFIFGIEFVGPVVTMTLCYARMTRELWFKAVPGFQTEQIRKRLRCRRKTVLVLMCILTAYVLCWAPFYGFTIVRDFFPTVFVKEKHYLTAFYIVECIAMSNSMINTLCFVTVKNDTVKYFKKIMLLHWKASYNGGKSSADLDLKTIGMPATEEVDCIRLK

Chain of UniProt Q8NFJ6 (Q8NFJ6 whole entry): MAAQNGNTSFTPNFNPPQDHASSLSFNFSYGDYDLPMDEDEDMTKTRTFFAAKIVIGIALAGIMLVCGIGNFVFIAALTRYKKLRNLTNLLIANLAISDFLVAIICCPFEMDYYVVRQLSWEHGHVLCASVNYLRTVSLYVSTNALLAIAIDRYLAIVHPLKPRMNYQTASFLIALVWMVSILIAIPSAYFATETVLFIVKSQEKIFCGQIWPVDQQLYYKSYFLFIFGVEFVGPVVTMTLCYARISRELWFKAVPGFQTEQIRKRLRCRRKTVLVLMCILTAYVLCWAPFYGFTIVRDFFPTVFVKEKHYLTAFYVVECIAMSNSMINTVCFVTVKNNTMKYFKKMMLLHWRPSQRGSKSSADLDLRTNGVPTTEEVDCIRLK

Antagonistic Activity of PK mutants (Calcium Mobilization Assay), ligand PK1 [1]: 15 nM
Antagonistic Activity of PK mutants (Calcium Mobilization Assay), ligand PK2 [1]: 30 nM
Antagonistic Activity of PK mutants (Calcium Mobilization Assay), ligand PK1 [2]: 9 nM
Antagonistic Activity of PK mutants (Calcium Mobilization Assay), ligand PK2 [2]: 90 nM
B1: Met PK1 (ligand)
chain: MAVITGACERDVQCGAGTCCAISLWLRGLRMCTPLGREGEECHPGSHKVPFFRKRKHHTCPCLPNLLCSRFPDGRYRCSMDLKNINF

Antagonistic Activity of PK mutants (Calcium Mobilization Assay), ligand PK1 [1]: 16 nM
Antagonistic Activity of PK mutants (Calcium Mobilization Assay), ligand PK2 [1]: 29 nM
Antagonistic Activity of PK mutants (Calcium Mobilization Assay), ligand PK1 [2]: 6 nM
Antagonistic Activity of PK mutants (Calcium Mobilization Assay), ligand PK2 [2]: 110 nM
B2: MV PK1 (ligand)
chain: MVITGACERDVQCGAGTCCAISLWLRGLRMCTPLGREGEECHPGSHKVPFFRKRKHHTCPCLPNLLCSRFPDGRYRCSMDLKNINF
